Consider 21 sequences from a protein production outcome set (Wang et al. 2014).

The series in a line: label from the status in PepcDB records.

For the sequence “MSLVNLTINGKHVSAPSGTSILDAAKLINIKIHNLCHLHMNEIDKLDTCASCRVCMVETERGLVPACGTVIKEGMKVQTNSAKALNARRTIVELLLSDHPQDCFVCEKNGDCELQTIAADLGVRKIRYQGSKSFAGKDTSTKSLVKDHSKCILCRRCETVCNDIQTVGALSGVNRGFNTLVSTFFNSDMVETECTFCGQCISVCPTGALTEVDNVPKLWDVLNKKEKTIVVQVAPAVRVAIGEEFGLEPGSISTGKMVAALKALGFEHVFDTNFGADFTIMEEATEFIERIQKGENLPILTSCCPAWVNFLEHNYPDKLNLASSCKSPQGMFGSIAKNYYAPKILGINPEELYVVSVMPCVAKKYEASREELSESGILDVDLSITTRELAKMIKEAAIDLPNLQDQDFDNPLGKSTGAASIFGASGGVLEAALRTSYEKITNKTLDNVNFTNVRGLKGIREASIDVDGTTVNVCIVNTLKNARKIMDKVRSGECKYHIIEVMACPGGCVGGAGQPYHHGNTEIVDRRANALYEIDRNKAIRKSHENPDLQAIYKDFFGEPNSDVAHKYLHTHYFDKSCVYGECPQECACEEAK”, the protein production result is given as “failed”.

As for “MSLVRSKAPLRLGLAGGGSDVSPYSDIYGGLILNATINLYAYCTIEETNSGRIEINAYDAQCCKSYLSMSQLEIDGEASLIKGVYNRIIRDYRLEPKSFKITTYNDAPAGSGLGTSSTMVVCILKAFIEWLSLPLGDYETSRLAYEIERKDLGLSGGKQDQYAAAFGGFNYMEFLQNDLVIVNPLKMKRWIVDELESSMVLYFTGRSRSSAAIINEQKKNTSEGNQTAIEAMHKIKQSAIDTKLALLKGDVGEFARILGEGWENKKKMAGAITNPMIQEAFDVATGAGAMAGKVSGAGGGGFIMFVVEPTRKEEVVRALNNLNGFVMPFQFIDDGAHGWKIYSTDKVQKEGHHHHHH”, the protein production entry was “not failed”.

On to “MSLWLTHPLFLPSLIVGVTIVLWATSLLPEFITALLFFAAAMMAKIAPPEVIFGGFASSAFWLVFSGFVLGIAIRKTGLADRAAQALSARLTDSWPRMVASVVLLSYALAFVMPSNMGRIALLMPIVAAMARRAGIADGSRGWFGLALAVGFGTFQLSATILPANVPNLVMSGAAEGSYGIHLNYVPYLLLHTPVLGWLKGAVLVALICWLFPGKPHPPRDLAPLPPMSRDEKRLAWLLAVVLSLWVTESWHGVGPAWTGLAAAVITLLPRVGFINGEEFASGVNMRTCIYVAGILGLAIAVTQTGIGGAVGNALLQVMPLDKDNPFTSFLALTGITSALNFIMTANGVPALYTTFAQSFADATGFPLLSVIMIQVLGYSTPLLPYQASPIVVAMGLGKVPARAGMQLCLALAAVSYLILLPLDYAWYQLLGKL”, for which the protein production entry is recorded as “failed”.

“MSMECVVQGIIETQHVEALEILLQGLCGVQRERLRVHELCLRSGPNLGVVSSEVRLLCDLDQPEPTWTVKHVGGAMRGAGADQISVLVRNMIESKVSKNALRMFYALGYKLDHELLKVGFAFHFQRTAHISVSVSSVNKMPKVHAIDEAVPVTPGMQIVDVTAPATSENYSEVAAAVSSFCEFLAPLVHLSKPSISTGVVPTAAAAAASLMSDGGGTTL”: the protein production result is on record as “failed”.

Regarding “MSMELFEVHEGKAKVLVPKAKTIYDSPVFYNPRMAPNRDVVVLLLNVLKPKIVLDALSATGIRGIRFALETPAEEIWMNDINELAYELMKKNVLLNFKGTLKENAKRAIFEGEKTIVINNDDANRLMAEKHRYFHFIDLDPFGSPMEFLDTALRSVKRKGILGVTATDGAPLCGAHPKACLRKYLAVPLRGELCHEVGTRILVGVIARYAAKYDLGMEVLLAYYKDHYFRAFVKLKDGAKKGDETLENLGYVYFDEKTGRFEVEKSFLSTRPNAYGPLWLGPLKNEKVVGEMLELLVSGFEVANYREVLKLLHMLHEELDIPLFYDTHALGKRLKIEPKKLGEIIKELKSMGYEATRTHFSPTGIKTNAPYEVFVEVMRKN”, the protein production result is “failed”.

Turning to “MSMIRLTVEETNLLSIYNEGGKRALIENVNAALPYMDADMRELAKRTLSKVDALTEAEFAELPIYAADEV”, the protein production entry is given as “failed”.

With “MSMKKQFALFSTLLLLGSSMPVGAFAEGNNLVAENSSVAETTAEATTAEATETTATSETTEATEESTTETESSTESSESATTESTETSGTETTDSTTDSTSTSTTESTTDSTSTSTTESTTDSTSTSTTESSTTPTTTPSSSKEQPKPGTSTSESKQPAKPVTPTAPAEKPVEQPAASTPQPEIVPPVTNETVGLVEDDETFTVSKTKKTEEFIQEIGESARKVAKDKNLYASVMIAQAILESGSGNSKLSQKPNYNLFGIKGDYKGQSVSFITYEDNGFGNLYTVEAKFRQYPTYKESMEDYAKLLKNGLDSNKDFYHGVWKTEAKSYKEATRFLTGKYATDKDYHKKLNALIKTYDLTYYDKEKATVEPMESNFPAYNGKNYDTFNSYAWGNCTQYVYNRITQLGKRVDLTMGNGQDWGETGRARGYKVSRTPKAGAAVSFPAGVLGADNTYGHVAFVEKVFKDGSILISEMNVKGLNVVSTRTISADETHLMNYIVPKDK”, the protein production result was “failed”.

For the sequence “MSMLKKTKEFFGLAPYEAEHEDAYYADEPRYEGTAAYAPEYRERDYGYAPEAPAPVAPSPAPRSYQSTIVPVELHSFEDAQVIGGAFRDGDAVVFDMSLLSREEARRIVDFAAGLCFALRGKMQKIDSVTFAVVPELSNISTSELERAARIRLEHHHHHH”, the protein production entry was “not failed”.

In the case of “MSNAITMGIFWHLIGAASAACFYAPFKKVKKWSWETMWSVGGIVSWIILPWAISALLLPNFWAYYSSFSLSTRLPVFLFGAMWGIGNINYGLTMRYLGMSMGIGIAIGITLIVGTLMTPIINGNFDVLISTEGGRMTLLGVLVALIGVGIVTRAGQLKERKMGIKAEEFNLKKGLVLAVMCGIFSAGMSFAMNAAKPMHEAAAALGVDPLYVALPSYVVIMGGGAIINLGFCFIRLAKVKDLSLKADFSLAKSLIIHNVLLSTLGGLMWYLQFFFYAWGHARIPAQYDYISWMLHMSFYVLCGGIVGLVLKEWNNAGRRPVTVLSLGCVVIIVAANIVGIGMAN”, the protein production result is “failed”.

Regarding “MSNANQKITTFLMFEGKAEEAMNFYTSLFDQSEIVSISRYDENGPGKEGTVIHATFTLNGQEFMCIDSYVNHNFTFTPAMSLYVTCETEEEIDTVFHKLAQDGAILMPLGSYPFSKKFGWLNDKYGVSWQLTLAE”, the protein production result is “not failed”.

On to “MSNEHTRPPLPPFTRESAIEKVRLAEDGWNTREPEKIALAYTVDTQWRNRAEFANNREEARDFLTRKWKKELDYRLIKELWAFTDNRIAVRYAYEWHDDSGNWFRSYGNENWEFEADGLMHRRFACINDMPIKESERKFHWPLGRRPDDHPGLTELGLLEHHHHHH”, for which the protein production result is listed as “failed”.

Consider “MSNEMYYVQASDPAILEKGECGGAVTALFKYLLDKGIVDGVLALKKGVDVYDAIPTFVTSSEDLLSTAGSLHCAPTMWGGIIKEYLQDAKIAVPVKPCDMRAIVELAKRAQINLDNVYMIGLNCGGTVPPKTAMEMIKLFYEVDPKDVVKEEIDKGKFIIVMNDGSHKEVKMHDLEDNGYGRRVNCQRCDEKIPRKADIAAGNWGVIGEDAGKYTFMEVCTEKGKQLLEDAEKDGYIKKKSPNPKGIEIRAKVESSMLKMGEDYKNKWLEEEYPTIEEWNRQWNKCIKCYGCRDVCPVCFCRECALNADYLDSGSIPPNPIMFQGVRMSHMAFSCVNCGQCEDVCPMEIPVARIFHKVQEKTRKELGYRPGVDDEAPPALGGSCPTQ”, for which the protein production result was “failed”.

Take “MSNGGLSIDEKEGLIDKDEVMIRRMKNRERQRRYRARKRMREEEAGNDDNLSFETMGKQEEEEEEDEGLEFNGPSGYVENFVRRVYCDRNWKKEARRAHLIMNKAQDSSCESVKRKIRPHRRDWKAEARKKKT”: the protein production result was “failed”.

In the case of “MSNGIVIIGSGFAARQLVKNIRKQDATIPLTLIAADSMDEYNKPDLSHVISQGQRADDLTRQTAGEFAEQFNLHLFPQTWVTDIDAEARVVKSQNNQWQYDKLVLATGASAFVPPVPGRELMLTLNSQQEYRACETQLRDARRVLIVGGGLIGSELAMDFCRAGKAVTLIDNAASILASLMPPEVSSRLQHRLTEMGVHLLLKSQLQGLEKTDSGIQATLDRQRNIEVDAVIAATGLRPETALARRAGLTINRGVCVDSYLQTSNTDIYALGDCAEINGQVLPFLQPIQLSAMVLAKNLLGNNTPLKLPAMLVKIKTPELPLHLAGETQRQDLRWQINTERQGMVARGVDDADQLRAFVVSEDRMKEAFGLLKTLPM”, the protein production result is “failed”.

“MSNGTPQKTKLHFPHTYALIFFIIILAALASYFIPSGEFKRVEEDGQTVIVQGSYKQTDAGPVGFFEMFKAIPEGMIQSADIIFYIFLIGGAFGIIHQTGMIRAGVHVLVQRLKKRGFLLIPVTMFVFSIGGATIGLSEETIIFIPIGIAVARALGYDSMTGLAMISLGAAAGFTGGMLNPFTVGIAQTIAEVPVFSAFGYRLAVYAAMLGFSIFYVMRYAQQVKAHPNTGLMYGSETEINEETAAGHADLSFTGRHGLVLLITALGFGINMFGVFQWGWFLSELSAGFLIIGFAAGLAGGRGINNTFHSFVDGMKQVVYGALIVGFARAIVIVLENGHIIDTIINSLASAISSLPNEISAIGMFAVQIAINTFIPSGSGQAATTMPLMAPLADLLGFERQIAVFAYQYGDGITNSIIPTSGVLLASLSIAGVPYERWVKFVWKLIAGWIIIGAAAIVIAMIIGIK”: the protein production entry is “failed”.

On to “MSNIECVMFDCDGTLVDSEVLCCRAYVVMFAHYDIHLSLEEVIKRFKGVKLNEIVARVSQENGLDEPIEKLEKLYRAEVARLFDAELQPIAGAKALLEQITLPVCVVSNGPVSKMQHSLGLTGLLPFFEDKLYSGYDIQRWKPDPTLIYHAAEKMHVAAERCILVEDSAAGTHAGIAAGIPVYYYCADPHNQPIHHPLVTMFDDMQQLPDLWRERGWQITSH”, for which the protein production result is “failed”.

In the case of “MSNKLLLVFALIGIIVVFSCGLFLPIPIGYRVSMLTAGVIMSVVFSIIIPFDRKHIVRKKGNKIDFTKTKVYFRWNVFDTISVCLALYACICVQVLIFLVPMGFTIQNPYVQFFTNQSQLWVFIAIAYLISRISLTLKGIKEIKNHGADWD”, the protein production result is reported as “failed”.

For the sequence “MSNKPASQQTRLTDWLIFLAVPFFFSSNVIFGRGVVGEVSPFIAAFIRWMGSTLIIAPFMIADWRNCLAFVRDKMLLWLVLGILGMGICGGVVYWGLTMTTAANGTLIYTTSSLFIILFQRIFQGRPIRKLEVAGMVIAFAGVAAIVLKGDISALRHMNFNIGDFAILTAAIAFAIYSLLLRDPAARQMASFSLFGLIAFSGALVLLPPAALELAQGGMLPATGAAWAKIGGIILFASLLAFYCFTHTVRVFGPATAGITLYMMPPVSILMATIFLGETFETYHAIGIVLVTGGVILATAPIGRKR”, the protein production result is “failed”.

Consider “MSNLISRILTALIFGFITLCLTWVGGTLFFLFVWVIGGFILYEWMSITKEKWHVLQKILASVFYLVFGAFLISNASASLIFCILIALAALLAIGPMRKSVWVFFGFLYVCFPVVALSFLRGHEPLGFWVVIFLFTIVWGTDIAGYFSGRAFGGPKLAPQFSPNKTWMGAIGGTFVGVSGGILIAFQFFDLNSAVFFVLLLALILSIVSQMSDLGQSWLKRQFSVKDSGSLLPGHGGFMDRMDGLVGAAFLLYLIGSFMSNMDTPFNLFCMV”, for which the protein production entry is reported as “failed”.

As for “MSNMEKHLFNLKFAAKELSRSAKKCDKEEKAEKAKIKKAIQKGNMEVARIHAENAIRQKNQAVNFLRMSARVDAVAARVQTAVTMGKVTKSMAGVVKSMDATLKTMNLEKISALMDKFEHQFETLDVQTQQMEDTMSSTTTLTTPQNQVDMLLQEMADEAGLDLNMELPQGQTGSVGTSVASAEQDELSQRLARLRDQV”, the protein production entry is recorded as “not failed”.

“MSNNSKISWTTTTWNVTAGCDPISDGCKNCYARMMAERLKAMGQAKYQNGFIPTIHSECLNEPFGWKGNKLVFVVSMGDLFHKDIPFDFIDKVIEVITKCPQHTFQILTKRAERMYEYFSTHAIPENVWLGVTVENQKVKGRIDYLKKLDAPVRFLSCEPLLEDLGTLDLSDIDWVIVGGESGNRARKVEKDWILNIKSQCDASTSTAFFFKQWGTWGADGVKRSAKENGCLLDGKEYHAYPTPRKIKPLEHHHHHH”: the protein production result is recorded as “not failed”.
